Results from patent publication US20150232562A1 (Ablynx, published 2015).
Where a chain is given by its changes, count along the chain named.

B1: 11A81/1-125 (VHH)
VHH: EVQLVESGGALVQPGGSLRLSCAASDSIRSINIMGWYRQAPGKQREFVAAVTEDGSINYAESVKGRFTISRDKAKNALYLQMNSLKPEDMAVYYCNADRVLYYSDSRYYTGSNYWGQGTQVTVSS
notes: C-term myc-His6 tag
B2: 21A111/1-124 (VHH)
VHH: EVQLVESGGGLVQAGGSLKLSCAVSGRTIVPYTMAWFRQAPGKEREFVAVTRSGGTTFYADSAKGRFTIARDDAKNTVYLQMNSLKPEDTAVYYCALATAYRTNYSSRDKYDYWGQGTQVTVSS
notes: C-term myc-His6 tag
B3: 22C65/1-124 (VHH)
VHH: EVQLVESGGGLVQAGGSLRLSCAVSGFLFDSYAMGWFRQAPGKEREFVAAIRWSGSATDYSDSVKGRFTISRDNAKNTVYLQMNSLIPEDTAVYYCAARKTYRSLTYYGEYDSWGQGTQVTVSS
notes: C-term myc-His6 tag
B4: 13E51/1-128 (VHH)
VHH: EVQLVESGGGLVQAGGSLRLSCAASRHTFSGYAMGWFRQAPGKEREFVAAIRWSGGITYYADSVKGRFTISSDNAKNTVYLQMNSLKPEDTALYYCARSVTYYSGSHAYTQEGGYARWGQGTQVTVSS
notes: C-term myc-His6 tag
B5: 11A71/1-125 (VHH)
VHH: EVQLVESGGGLVQPGGSLRLSCAASRSIRSVSVMGWYRLAPGNQRELVATITADGITNYADSVKGRFTVSRDNGRNTVYLQMNSLKPEDTAVYYCNVDRLLYYSSGYYQTSVDVWGQGTQVTVSS
notes: C-term myc-His6 tag
B6: 13G121/1-127 (VHH)
VHH: EVQLVESGGGLVRAGTSLRLSCADSARTFSSAAMGWFRQAPGKEREFVSAISPIGSSKYYADSVKGRFTISRDNAKNTVYLQMDSLKPEDTAVYYCAASSYGSTYYSQGRAYYYDYWGQGTQVTVSS
notes: C-term myc-His6 tag
B7: 11A31/1-120 (VHH)
VHH: EVQLVESGGGLVQAGGSLRLSCAASGGTFSSGVMAWFRQSPGEEREFLALITRNGETKKTADSVKGRFTISRDNAKNGVSLQMDSLKAEDTAVYYCASDPTYGSGRWTYWGQGTQVTVSS
notes: C-term myc-His6 tag
B8: 13F41/1-111 (VHH)
VHH: EVQLVESGGGLVQAGGSLRLSCVASGRTLSTTGVGWFRQAPGKERESVATIFVGGTTYYSDSVKGRFTISRDNAKNAVNLQMSNLKPEDTALYYCTIGSYRGQGTQVTVSS
notes: C-term myc-His6 tag
B9: 12C101/1-111 (VHH)
VHH: B8 VHH with K75R, L80P, S83N, L92V
notes: C-term myc-His6 tag
B10: 13F42/1-111 (VHH)
VHH: B8 VHH with E44G, Y93H
notes: C-term myc-His6 tag
B11: 12D61/1-116 (VHH)
VHH: EVQLVESGGGLVQPGGSLRLSCAASRSIFSPNVVGWYRQAPGKQRELVAAVTSGGITNYADSVKGRFTISRDNAKNTLYLQMNSLKAEDTAVYYCNARERGIYDSWGQGTQVTVSS
notes: C-term myc-His6 tag
B12: 22B41/1-124 (VHH)
VHH: EVQLVESGGGLVQPGGSLRLSCTVFGRTFSGDVIGWFRQAPGKEREFVAAISTSGGGTDSADSVKGRFTISKENAKNTVYLQMTILKPEDTAVYYCASSPYGPLYRSTHYYDYWGQGTQVTVSS
notes: C-term myc-His6 tag
B13: 12D121/1-126 (VHH)
VHH: EVQLVESGGGLVQTGGSLRLSCAASGRAFSTYGMGWFRQAPGKAREFVAAISRSGTGTYYAGSMKGRFTISRDDAKNTVYLQMNSLKPEDTAVYYCAARQPYASGSHYSSTQYTYWGQGTQVTVSS
notes: C-term myc-His6 tag
B14: 14H51/1-124 (VHH)
VHH: EVQLVESGGGLVQAGGSLRLSCAASGGTFGVYTMAWFRQAPGKEREFVAAIRSGATTLYEDSVKGRFTISRDDAKNTVYLRMNSLKPEDTAVYYCAAQIYYRTNYYSQNEYDYWGQGTQVTVSS
notes: C-term myc-His6 tag
B15: 21A53/1-124 (VHH)
VHH: B14 VHH with R19E, T28A, T33H, A35G, A55G, F67V, E110V
notes: C-term myc-His6 tag
B16: 21A21/1-124 (VHH)
VHH: B14 VHH with T33H, A35G, K43T, A50V, A55G, D73N, Y106S, N109S, E110N
notes: C-term myc-His6 tag
B17: 14H91/1-127 (VHH)
VHH: EVQLVESGGGLVQAGGSLRLSCAASGRTFSRDVMGWFRQAPGKEREFVAAKTWSGASTYYADSVRGRFTISRDNAKNAVYLQMNSLKPEDTAVYYCAARDSSTLDSTYYVGGSYNYWGRGTQVTVSS
notes: C-term myc-His6 tag
B18: 13G31/1-125 (VHH)
VHH: EVQLVESGGGLVQAGGSLRLSCAASGGTFSRYKMGWFRQAPGKEREFVAASRWSGGIKYHADSVKGRFTISRDDAKNSIYLQMNTLKPEDTAVYYCAADDYLGGDNWYLGPYDSWGQGTQVTVSS
notes: C-term myc-His6 tag
B19: 22B610/1-120 (VHH)
VHH: EVQLVESGGGLVQPGGSLRLSCAASGSIFSINAMGWYRPAPGKQRELVARITSTGSTNYADSVKGRFTISRDNAKNTVYLQMNSLKPEDTAVYYCNADVSPSYGSRWYGWGQGTQVTVSS
notes: C-term myc-His6 tag
B20: 14H21/1-125 (VHH)
VHH: EVQLVESGGGLVQAGGSLRLSCVRSGGYFGSYHIGWFRQAPGNEREFVAAITWNGASTSYADSVKGRFTISRSIAENTVYLQMNKVKPEDTAVYYCAARMYGSDWLPRPEDFDSWGQGTQVTVSS
notes: C-term myc-His6 tag
B21: 11B91/1-125 (VHH)
VHH: EVQLVESGGALVQPGGSLRLSCAASGSIRSINTMGWYRQAPGNQREFVAAVTEGGTTSYAASVKGRFTISRDKAKNTVLLQMDSLKPEDTAVYYCNADRFLYYSAGRYDTGSDIWGQGTQVTVSS
notes: C-term myc-His6 tag
B22: 13F121/1-119 (VHH)
VHH: EVQLVESGGGLVQAGGSLRLSCAASGRSFNDYTMGWFRQTPGKEREFVARVWWNGGSAYYADSVKGRFTISIDNAKNTVYLQMNNLTPEDTAVYYCAALYRGRSVYDDWGQGTQVTVSS
notes: C-term myc-His6 tag
B23: 12D71/1-125 (VHH)
VHH: EVQLVESGGGLVQAGGSLGLSCAASGRTVSTMGWFRQAPGKEREFVTAITWSGDSTNFADSVKGRFTISRDSAKDTVYLQMNNLKPEDTAVYYCAATTYYSGSYISTLSTSYNYWGQGTQVTVSS
notes: C-term myc-His6 tag
B24: 12C32/1-127 (VHH)
VHH: EMQLVESGGGLVQAGGSLRLSCATSERTFSTYTMAWFRQAPGKEREFVVAIKSSDNSTSYRDSVKGRFTISRDNAKSTMYLQMNSLKPEDTAVYYCAARREYSTIYTARYPGEYVYWGQGTQVTVSS
notes: C-term myc-His6 tag
B25: 22B1212/1-122 (VHH)
VHH: EVQLVESGGGLVQPGGSLRLSCAASGFTFSSYAMSWVRQAPGKGLEWVSAINSGGGSTSYADSVKGRFTISRDNAKNTLYLQMNSLKPEDTAVYYCAKYLSFYSDYEVYDYWGQGTQVTVSS
notes: C-term myc-His6 tag

Target: T1, recombinant human ErbB2/Fc chimera (human, UniProt P04626 23-652)
T1 construct: bought from R&D Systems; also called rhErbB2-Fc; rhErb2-Fc; Fc part of the bought chimera not given; not described
Assay: ELISA, coated ErbB2/Fc

Row | binding result | Binder
1 | binds | B1
2 | binds | B2
3 | binds | B3
4 | binds | B4
5 | binds | B5
6 | binds | B6
7 | binds | B7
8 | binds | B8
9 | binds | B9
10 | binds | B10
11 | binds | B11
12 | binds | B12
13 | binds | B13
14 | binds | B14
15 | binds | B15
16 | binds | B16
17 | binds | B17
18 | binds | B18
19 | binds | B19
20 | binds | B20
21 | binds | B21
22 | binds | B22
23 | binds | B23
24 | binds | B24
25 | binds | B25
